The target of experiment [1] is T1, Duffy Antigen Receptor for Chemokines (DARC) (human, UniProt Q16570 1-336).
T1 construct: whole, on cells; also called red blood cells expressing DARC
T1 sequence (looked up): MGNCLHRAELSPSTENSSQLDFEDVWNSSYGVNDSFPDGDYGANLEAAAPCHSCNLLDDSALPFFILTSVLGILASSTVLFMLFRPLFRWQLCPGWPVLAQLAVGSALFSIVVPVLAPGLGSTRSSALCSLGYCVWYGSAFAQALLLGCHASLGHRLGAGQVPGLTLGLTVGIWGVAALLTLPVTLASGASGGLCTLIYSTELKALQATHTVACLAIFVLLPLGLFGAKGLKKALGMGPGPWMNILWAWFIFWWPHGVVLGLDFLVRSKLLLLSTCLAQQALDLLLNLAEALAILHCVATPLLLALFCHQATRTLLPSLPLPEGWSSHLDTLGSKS
Put plainly: ka for red blood cells divided by ka for THP-1 cells.

The target in experiment [2] is T1, Duffy Antigen Receptor for Chemokines …. Put plainly: DARC binding, Table 18.

B1: peptide 2(1-15)[MCP-1] (peptide)
peptide: SYRRITSSKCPKEAV
notes: also called Pep2[MCP1]; Pep2(1-15)[MCP1]
Molecule B1 gave a Duffy selectivity in experiment [1] of 0.18. In experiment [2], this molecule showed a DARC binding of 0.1 µM.

B2: Pep2(1-15)[SDF1] (peptide)
peptide: HLKILNTPNCALQIV
notes: also called Pep2[SDF1]; peptide 2(1-15)[SDF1α]
The molecule B2 had a Duffy selectivity in experiment [1] of less than 1. In experiment [2], this molecule showed a DARC binding of 19 µM.

B3: Pep2(1-14)[MIP1α] (peptide)
peptide: DYFETSSQCSKPGV
notes: also called Pep2[MIP1α]; peptide 2(1-15)[MIP1-α]
B3 displayed a Duffy selectivity in experiment [1] greater than 100.

Regarding SYRRITSSKC, in experiment [2], the DARC binding came out at 22 µM.

(Values after patent US7238711 (CAMBRIDGE ENTERPRISE, dated 2007).)
